Laboratory results from patent US20230159663A1 (VIRTUOSO BINCO, published 2023).

T1: human EpCAM on cells (CHO-K1 cells transfected with human EpCAM; EpCAM+ tumour cell lines) (human, UniProt P16422 24-314)
T1 construct: whole, on cells; also called CHO-K1-huEpCAM cells; cell-surface EpCAM
T1 sequence (looked up): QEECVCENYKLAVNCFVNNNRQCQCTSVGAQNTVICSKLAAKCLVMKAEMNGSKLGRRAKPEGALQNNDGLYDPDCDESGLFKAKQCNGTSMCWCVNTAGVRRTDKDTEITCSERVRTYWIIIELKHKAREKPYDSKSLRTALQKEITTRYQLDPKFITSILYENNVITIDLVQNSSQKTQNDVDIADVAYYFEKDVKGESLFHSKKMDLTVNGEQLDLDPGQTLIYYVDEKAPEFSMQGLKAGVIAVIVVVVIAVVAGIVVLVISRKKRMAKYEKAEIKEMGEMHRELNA

T2: human EpCAM extracellular domain with C-terminal His tag (Novoprotein #C339) (human, UniProt P16422 24-265)
T2 construct: extracellular domain; Bought protein
T2 sequence (looked up): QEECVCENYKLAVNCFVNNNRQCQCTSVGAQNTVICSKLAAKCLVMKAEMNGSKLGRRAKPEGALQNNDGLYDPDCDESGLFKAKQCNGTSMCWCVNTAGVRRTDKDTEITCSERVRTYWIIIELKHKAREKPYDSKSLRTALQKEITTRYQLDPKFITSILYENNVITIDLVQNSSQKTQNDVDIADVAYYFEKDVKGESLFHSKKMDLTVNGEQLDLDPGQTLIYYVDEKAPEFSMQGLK


Columns and labels:
[1] = target: T1, human EpCAM on cells (CHO-K1 cells …); test: flow cytometry on CHO-K1 cells transfected with human EpCAM
[2] = target: T2, human EpCAM extracellular domain with …; test: ELISA on human EpCAM
[3] = target: T1, human EpCAM on cells (CHO-K1 cells …); test: flow cytometry on MCF-7, Caco-2 and A431 cells
[4] = target: T3, CD47 expressed on human red blood cells (human, UniProt Q08722 19-323); test: flow cytometry on human red blood cells
T3 construct: whole, on cells; also called RBCs; RBC
Method: The RBC binding assay was performed by spinning down fresh human whole blood at 200 g for 10 minutes. Collected RBCs were washed twice with PBS and counted using flow cytometry. 1×10⁶ cells were dispensed into each well of a 96 well culture plate. Serially diluted anti-CD47 antibodies were added and incubated for 1 hour at 4° C. Cells were washed with FACS buffer (PBS+2% FBS) twice. […] Cells were washed twice and resuspended in 200 μl of FACS buffer and analyzed by flow cytometry.

[5] = target: T4, human CD47 extracellular domain with C-terminal 6×His tag (human, UniProt Q08722 19-139, limits assumed); test: ELISA, plate coated with recombinant huCD47
T4 construct: extracellular domain; Made in Expi293F cells (section 5.4.1); also called recombinant CD47; huCD47

[6] = target: T2, human EpCAM extracellular domain with …; test: ELISA, plate coated with human EpCAM

Row | Binder | binding result [1] | binding result [2] | other results
1 | mAb-35 (chimeric anti-EpCAM antibody) (antibody, V domains shown) VH: EVQLQQSVAELVRPGASVKLSCTASGFNIKNTYMHWVKQRPEQGLEWIGRIAPANGNTKYAPKFQDKATITANTSSNTAYLQLGSLTSEDTAIYYCAFIYQLPYWGQGTTLTVSS VL: DIVLTQSPASLAVSLGQRATISCRASESVDNYGISFMHWFQQKPGQPPKLLIFRASSLESGIPARFSGSGSRTDFTLTINPVETDDVATYYCQQSYKDPWTFGGATKLEIK | binds | binds | 
2 | mAb-21 (chimeric anti-EpCAM antibody) (antibody, V domains shown) VH: DVQLQESGPGLVKPSQSLSLTCTVTGYSITSDFAWNWIRQFPGNKLEWVGYITYSGTTSYNPSLKSRISITRDTSKNQFFLQLSSVTTEDTATYYCARSFHFFAYGFAYWGQGTLVTVSA VL: not shown |  |  | EC50 [3]: < 20 nM
3 | mAb-39 (chimeric anti-EpCAM antibody) (antibody, V domains shown) VH: QIQLVQSGPELKKPGETVKISCKASGYTFTSYGVTWVKQAPGKGLKWMGWINTYSGVPTYADDFKGRFAFSLETSASTAYLQINNLKNEDTATYFCARSHSNYDFWGQGTTLTVSS VL: DIVMTQSQKFMSTTVGDRVSITCQASQNVGTDVGWYQQKPGQSPKLLIYSASNRYTGVPDRFTGSGSGTDFTLTISNMQSEDLADYFCQQYSSYPRTFGGGTKLEIK | binds | binds | 
4 | mAb-36 (chimeric anti-EpCAM antibody) (antibody, V domains shown) VH: QVQVQQSGPELVKPGTSVKISCKTSGYTFTDYYITWVKQRPGQGLEWIGWIFPGRGISFYNENFKDKATLTVDKSSNTAFMLLSSLTSEDSAVYFCARWGGTWFAYWGQGTLITVSA VL: EIVLTQSPAITAAFLGQKVTITCSASSSVSYIHWYQQKSDTSPKPWIYEISKLASGVPARFSGSGSGTSYSLTISSMEAEDAAIYYCQQWNYPLITFGGGTKLEIK | binds | binds | 
5 | mAb-8 (chimeric anti-EpCAM antibody) (antibody, V domains shown, also called EpCAM Mab8) VH: QVQLQQSGAELARPGASVQLSCKASGYTFTSYGISWLKQRAGQGLEWIGEIYPRSDNTYYNEKFKGKATLTADKSSSTAYMELRSLTSEDSAVYFCARRAGMWFAYWGQGTLVTVSA VL: EIVLTQSPAITAASLGQKVTITCSASSSVSDMHWYQQKSGTSPKPWIYEISKLASGVPTRFSGSGSGTSYSLTISSMEAEDAAIYYCQHWSYPLMTFGGGTKLEIK |  |  | EC50 [3]: < 20 nM
6 | VIR47.V7 hIgG1 (antibody, V domains shown, HC: F79Y, G82bS; LC: E103K (Kabat) against VIR47; already contained in the entries) VH: EVQLLESGGGLVQPGGSLRLSCAASGFTFSNFAMSWVRQAPGKGLEWVSTISASGGRTFYADSVKGRITISRDNSKNTLYLQMNSLRAEDTAVYYCAKEGSFGEGVDPWGQGTLVTVSS VL: SYEMTQPPSVSVSPGQTARITCSGDALPKKYAYWYQQKSGQAPVLVIYEDNKRPSGIPERFSGSSSGTMATLTISGAQVEDEADYYCYSTDISGNHWVFGGGTKLTVLG |  |  | fold higher concentration required for RBC binding, against CD47 BMK-1 [4]: > 20 fold
7 | mAb-2 (chimeric anti-EpCAM antibody) (antibody, V domains shown, also called EpCAM Mab2) VH: EVQLVESGGGLVQPKGSLKLSCAASGFTFNTYAMHWVRQAPGKGLEWVARIRSKTYNYATFYADSVKDRFTISRDDSQSMLYLQMNNLKTEDTAMFYCVTGSSYAMDYWGQGTSVTVSS VL: DILLTQSPAILSVSPGERVSFSCRASQSIGTSLHWYQQRTNGSPRLLIKYASESISGIPSRFSGSGSGTDFTLSINSVESEDIADYYCQQSNSWPYTFGGGTKLEIK |  |  | EC50 [3]: < 20 nM
8 | mAb-30 (chimeric anti-EpCAM antibody) (antibody, V domains shown) VH: EVQLQQSGPELVKPGASVKISCKASGYTFTDYYMSWVKQSHGRSLEWIGEINPDNGDTSHNQKFKGKATMTVDKSSGTGNMEIRSLTSEDAGIYYCTSYFSYWGQGTLVTVSA VL: DVLMTQSPLSLPVSLGDQASISCRSSQSIVDSDGSTYLEWYLQKPGQSPKLLIYKVSNRFSGVPDRFSGSGSGTDFTLKISGVEAEDLGVYYCFQGSHVPYTFGGGTKLEIK | binds | binds | 
9 | VIR47 hIgG4-SPL (antibody, Anti-CD47 from OmniRat rats on a human IgG4 framework with S228P; also called VIR47 mAb; IgG4 form) heavy: not shown light: SYEMTQPPSVSVSPGQTARITCSGDALPKKYAYWYQQKSGQAPVLVIYEDNKRPSGIPERFSGSSSGTMATLTISGAQVEDEADYYCYSTDISGNHWVFGGGTELTVLGQPKAAPSVTLFPPSSEELQANKATLVCLISDFYPGAVTVAWKADSSPVKAGVETTTPSKQSNNKYAASSYLSLTPEQWKSHRSYSCQVTHEGSTVEKTVAPTECS |  |  | fold higher concentration required for RBC binding, against CD47 BMK-1 [4]: > 20 fold
10 | Bi-1 (3C-KIH EpCAM × CD47 scFv bispecific antibody) (bispecific antibody, human IgG1, Three-chain knob-into-hole format) not shown heavy: not shown VL: DIQMTQSPSSLSASLGERVSLTCRASQDIGNSLNWLQQKPDGTIKRLIYVTSRLDSGVPKRFSGSRSGSDYFFTISSLESEDFADYYCLQYASSPFTFGSGTKLEIK |  |  | binding result [5]: binds; binding result [6]: binds
11 | mAb-1 (chimeric anti-EpCAM antibody) (antibody, V domains shown, also called EpCAM Mab1) VH: QVQLQQSGPELVKPGTSVKLSCRASGYTFTSYDINWVKQRPGQGLEWIGWIYPRDGSTKYNERFKGKATLTVDTSSSTAYMEFHTLTSEDSAVYFCARDPYYYGTIYGYFDVWGTGTTVTVSS VL: DIQMTQSPSSLSASLGERVSLTCRASQDIGNSLNWLQQKPDGTIKRLIYVTSRLDSGVPKRFSGSRSGSDYFFTISSLESEDFADYYCLQYASSPFTFGSGTKLEIK |  |  | EC50 [3]: < 20 nM; binding result [5]: no binding (tested: 100 nM); EC50 (read off the curve) [6]: ~0.1 nM

Second part, led by results:

Row | binding result [1] | binding result [2] | Binder | other results
12 | binds | binds | mAb-33 (chimeric anti-EpCAM antibody) (antibody, V domains shown) VH: EVLLQQSVADLVRPGASVKLSCTASGLNIKNTYIHWVKQMPEQGLEWIGRIGPANGNTKYAPKFQGKATITADTSSDTAYLQLSSLTSEDTAIYYCALAYYRIYWGQGTTLTVSS VL: DIVLTQSPASLAVSLGQRATISCRASESVDNSGISFMHWYQQKPGQSPKLLIYRASNLESGIPARFSGSGSRTDFTLTINPVETDDVATYYCQQSYENPWTFGGGTKLEIK | 
13 |  | binds | mAb-37 (chimeric anti-EpCAM antibody) (antibody, V domains shown) VH: EVQLQQSVAELVRPGASVKLSCTASGFNIKNTYMHWVKQRPEQGLEWIGRIAPANGNTKYDPKFQDKATITADSSSNTAYLHLSSLTSEDTAIYYCAFIYQLPYWGQGSTLTVSS VL: DIVLTQSPTSLAVSLGQRATISCRASESVDNYGISFMHWYQQKPGQPPKLLIYRASSLESGIPARFSGSGSRTDFTLTINPVESDDVATYYCQQSYKDPWTFGGATKLEIK | 
14 | binds | binds | mAb-28 (chimeric anti-EpCAM antibody) (antibody, V domains shown) VH: QVQLQQSGAELARPGASVKVSCKASGYTFTSYGISWVKQRTGQGLEWIGEIYPTRDYTYYNENFKGKATLTADKSSTTAYMELRSLTSEDSAVYFCARDGPPFAYWGQGTLVTVSA VL: DIVMTQAAFSNPVTLGTSASISCRSSKSLLHSNGFTYLHWYLQKPGQSPQLLIYQMSSLASGVPDRFSSSGSGTDFTLRISRVEAEDVGVYYCAQNLELPRTFGGGTKLEIK | 
15 |  | binds | mAb-4 (chimeric anti-EpCAM antibody) (antibody, V domains shown) VH: QVQLQQPGAELVRPGTSVKLSCKASGYTFTSYWMHWIKQRPGQGLEWIGVIDPSNSYSNYNQKFKGRATLTVDTYSSTAYMQLSSLTSEDSAVYYCARPYNHGRDAMDYWGQGTSVTVSS VL: DVLLTQTPLSLSVSLGDQASISCRSSQSFVHINGNTYLEWFLQKPGLSPKLLIYKVSNRFSGVPDRFSGSGSGTDFTLKISRVEAEDLGIYYCFQGSHVPLTFGAGTKLELK | 
